Data as given in patent publication US20230073947A1, “A METHOD FOR PREPARING BOVINE MYOGLOBIN USING ESCHERICHIA COLI” (iNtRON Biotechnology, Inc., priority 2020, published 2023).

Tested on: iron-deficiency-anemia-induced animals
Format: in vivo, Sprague-Dawley rats
Description: The composition containing bovine myoglobin prepared according to the present invention was administered to iron-deficiency-anemia-induced animals, whereby the effectiveness of the composition containing bovine myoglobin on alleviating anemia was evaluated. Specifically, after 2 weeks acclimation period, thirty 9-week old Sprague-Dawley rats (female) were divided into 3 groups of 10 rats per group, among which one group was fed with normal feed in an amount of 10% of body weight daily for one month (Group 1; control), and the remaining two groups were fed with iron-deficient feed in an amount of 10% of body weight daily for 6 weeks to induce iron-deficiency anemia (Group 2 and Group 3). After 6 weeks of feeding, it was confirmed that iron-deficiency anemia was induced in the individual rat belonging to Group 2 and Group 3. Then, one of the anemia-induced groups was orally administered once a day with saline alone (Group 2), and the other anemia-induced group was orally administered once a day with solution containing bovine myoglobin (0.1 mg Fe/500 μ1 solution, Group 3). The administration continued for 5 weeks. During 5 weeks of administration to Group 2 and Group 3, Group 1 was continuously fed with normal feed, and Group 2 and Group 3 were fed with iron-deficient feed. […] After 5 weeks of administration, blood was collected, and whether anemia was alleviated was evaluated.

[1] = female Sprague-Dawley rats, iron-deficient feed, oral once a day 0.1 mg Fe/500 μl solution for 5 weeks

B1: bovine myoglobin (protein)
chain: MGLSDGEWQLVLNAWGKVEADVAGHGQEVLIRLFTGHPETLEKFDKFKHLKTEAEMKASEDLKKHGNTVLTALGGILKKKGHHEAEVKHLAESHANKHKIPVKYLEFISDAIIHVLHAKHPSDFGADAQAAMSKALELFRNDMAAQYKVLGFHG
modifications: heme cofactor; Bovine myoglobin
Effectiveness at alleviating iron-deficiency anemia (conclusion from blood analysis after 5 weeks of administration): effective at alleviating iron-deficiency anemia
Blood test Hematocrit [1]: 35.8 ± 1.9%
Blood test Hemoglobin content [1]: 14.0 ± 0.7 g/dL
Weight of rats on 5 weeks after administration [1]: 318.9 ± 1.1 g
Occurrence of abnormal symptoms during the administration period (rat, in vivo, po): no abnormal symptoms
